In article PMC5673899, “Structural basis for receptor recognition of pollen tube attraction peptides” (Nature Communications, 2017):
Entries after “also recorded” stand apart in the source; their conditions may differ.

Experiments:
[1] = tested on: prk6 pollen tubes transformed with PRK6 ΔN239I240; assay: Gelatin-beads assay, prk6 pollen tubes transformed with ΔN239I240 PRK6; assay type: cell-based, Arabidopsis; conditions: beads with 250 nM wild-type AtLURE1.2; 10–23 pollen tubes per assay, three assays
Protocol: (§1) Attraction activities of mutant AtLURE1.2 peptides were examined for semi-in-vivo pollen tubes growing through cut, pollinated pistils by gelatin-beads assay and wavy assay, [20]. For the gelatin-beads assay, pollen tubes were grown on solid pollen germination medium poured into a mold made with 1-mm thick silicone rubber and cover glasses. After hand-pollination, the topside cover glass was removed and the medium was covered with hydrated silicone oil (KF-96–100CS; Shin-Etsu). Attraction of pollen tubes toward the peptide was evaluated using AtLURE1 peptide containing gelatine beads under an inverted microscope (IX71, Olympus) equipped with a micro-manipulator (Narishige). For the AtLURE1-responsive wavy assay, the purified AtLURE1.2 peptide was added to solid pollen germination medium, which was melted at 70 °C and then cooled to a certain degree. The mixture was mixed by vortexing and poured into the mold. Pollen tubes of each genotype were grown through cut styles, as mentioned above. Each peptide (25 μM in 10 mM Bis-Tris (pH 6.0) and 100 mM NaCl) was diluted to 250 nM by cultivation medium in both assays. To examine reactivity of PRK6 mutants to AtLURE1.2, constructs for PRK6 mutants, D234A, N239A, and ΔN239I240, were generated by site-directed mutagenesis from a wild-type PRK6 vector, pPZP221-pPRK6::PRK6-mRuby2 (ref. [20]). […]

[2] = tested on: AtPRK6^LRR; assay: Gel filtration assay with AtPRK6^LRR; assay type: binding, Arabidopsis thaliana
Excerpt: (§2) The genes of AtPRK3 ^LRR (residues 1–241), AtPRK4 ^LRR (residues 1–277), AtPRK5 ^LRR (residues 1–279), AtPRK6 ^LRR (residues 1–262), MIK1 ^LRR (residues 1–633), MIK2 ^LRR (residues 1–707) were amplified from Arabidopsis cDNA library by PCR and cloned into pFastBac-1 vector with a C-terminal 6 × His-tag. Their identities were confirmed by sequencing. The mature form of AtLURE1.1 (residues 20–94), AtLURE1.2 (residues 20–90), AtLURE1.3 (residues 21–91), and AtLURE1.4 (residues 20–90) were cloned into pFastBac-1 vector, with a modified N-terminal hemolin signal peptide and 6 × His-SUMO tag. Point mutation constructs were generated by QuickChange Site-Directed Mutagenesis Kit (Strategene). All the proteins were expressed using the Bac-to-Bac baculovirus expression system (Invitrogen) in High Five cells at 22 °C. One liter of High Five cells (2.0 × 10^6 cells mL^−1) cultured in the medium from Expression Systems was infected with 25 ml recombinant baculovirus and the media was collected after 72 h of infection. Secreted LRR proteins were purified using Ni-NTA (Novagen) and size-exclusion chromatography (Hiload 200, GE Healthcare) in buffer containing 10 mM Bis-Tris pH 6.0 and 100 mM NaCl. The His-SUMO tag of the AtLURE proteins was removed by Prescission Protease at 4 °C overnight in buffer containing 25 mM Tris pH 8.0 and 150 mM NaCl. […]

[3] = tested on: prk6 pollen tubes transformed with PRK6 N239A; assay: Gelatin-beads assay, prk6 pollen tubes transformed with N239A PRK6; assay type: cell-based, Arabidopsis; conditions: beads with 250 nM wild-type AtLURE1.2; 10–23 pollen tubes per assay, three assays
Protocol: as §1

[4] = tested on: MIK1; conditions: cited from earlier work
Excerpt: (§3) More recently, progress has been made in the identification of sensory receptors for external cues during pollen tube guidance, [18]. Through genetic screening, two research groups identified different pollen tube specific receptor kinases (RKs) which can function as the receptors of AtLURE1 (refs. [19], [20]). […] By contrast, our data ... || page 2: co-receptor in the signaling system. Typos : - line 167 : Lue242 instead of Leu242 Reviewer #3 (Remarks to the Author): The Zhang et al. manuscript is a continuation of the study of pollen tube guidance to its female target to deliver sperm for fertilization, starting almost twenty years ago by the Higashiyama group, which recently reported a number of pollen receptor kinases (PRKs) as receptors for the attractant LURE1(- 2) from Arabidopsis. The Zhang et al study here caps it by elucidating the structure of LURE1-PRK6 on the atomic level. In principle, the study is an imminently publi ...

[5] = tested on: MIK2; conditions: cited from earlier work
Excerpt: as §3

[6] = tested on: MDIS1; conditions: cited from earlier work
Excerpt: as §3

[7] = tested on: MIK2^LRR; assay: Gel filtration assay with MIK2^LRR; assay type: binding, Arabidopsis; conditions: 4 °C 30 min, 10 mM Bis-Tris pH 6.0, 100 mM NaCl
Excerpt: as §2

[8] = tested on: prk6 pollen tubes transformed with PRK6 D234A; assay: Gelatin-beads assay, prk6 pollen tubes transformed with D234A PRK6; assay type: cell-based, Arabidopsis; conditions: beads with 250 nM wild-type AtLURE1.2; 10–23 pollen tubes per assay, three assays
Protocol: as §1

B1: AtLURE1.2: mature form of AtLURE1.2 (residues 20–90), defensin-like cysteine-rich peptide expressed in insect cells (protein)
chain: TLINGSSDEERTYSFSPTTSPFDPRSLNQELKIGRIGYCFDCARACMRRGKYIRTCSFERKLCRCSISDIK
modifications: left off: His6, N-terminal, cleaved | SUMO, N-terminal, cleaved
notes: mature form of AtLURE1.2 (residues 20–90), defensin-like cysteine-rich peptide expressed in insect cells
- pollen tube attraction [1]: significantly lower than those in wild-type and N239A PRK6 pollen tubes; also recorded: significantly reduced
- effect on monomeric state of AtPRK6^LRR in solution ([2]; gel filtration): did not alter the monomeric status; also recorded: does not alter the monomeric state
- complex formation in gel filtration ([2]; purified proteins mixed at molar ratio about 1:3, 4 °C 30 min, 10 mM Bis-Tris pH 6.0, 100 mM NaCl): formed a stable complex
- pollen tube attraction / reactivity [3]: comparable reactivity to the wild-type PRK6
- binding to MIK1 [4]: directly binds
- binding to MIK2 [5]: directly binds
- binding to MDIS1 [6]: directly binds
- interaction in gel filtration [7]: none of the purified AtPRK3^LRR, MIK1^LRR or MIK2^LRR proteins showed detectable interaction
- pollen tube attraction [8]: significantly lower than those in wild-type and N239A PRK6 pollen tubes; also recorded: significantly reduced
